# Values quoted from earlier work, collected in patent US12150974B2, “Conjugates with inhibitory receptor ligands to induce anergy in insulin-binding B cells” (University of Kansas, priority 2021, dated 2024).
# Target: T1, CD20 (Homo sapiens, UniProt P11836)
# T1 construct: host or cells: B cells of trial patients (endogenous)
# T1 sequence (P11836 1-297): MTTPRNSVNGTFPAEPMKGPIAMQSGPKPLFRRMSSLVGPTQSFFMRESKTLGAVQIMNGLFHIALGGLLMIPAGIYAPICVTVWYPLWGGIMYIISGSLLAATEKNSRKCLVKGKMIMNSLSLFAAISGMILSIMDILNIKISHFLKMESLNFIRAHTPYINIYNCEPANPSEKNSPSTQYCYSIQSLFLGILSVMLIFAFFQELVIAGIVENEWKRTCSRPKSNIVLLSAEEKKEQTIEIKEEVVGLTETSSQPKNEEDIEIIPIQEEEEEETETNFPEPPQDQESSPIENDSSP
# Details: at 1 year
substance,measurement,value
rituximab,clinical outcome in T1D,beta cell preservation
